We go through five molecules from US20210115113A1 (CITY OF HOPE, published 2021).

First the molecules themselves.
B1: HB11 (antibody, V domains shown)
VH: PSLVKPSQTLSLTCSVTGDSITSGFWNWIRKFPGNKLEYMGYISYSGSTYYNPSLKSRISITRDTSKNQYYLQLNSVTTEDTATYYCARGNGGNYDWYFDVWGAGTTVTVSS
VL: AIMSASLGEKVTMSCRASSSVNFMNWYQQKSDDSPKLLIYYISNLAPGVPARFSGSGSGNSYSLTISGMEGEDAATYYCQQFTSSPSWTFGGGTKLEIKR
B2: HB1 (antibody, V domains shown)
VH: PGLVAPSQSLSITCTVSGFLLTTYGVHWVRQPPGKGLEWLGVIWAGGSTNYNSALMSRLSINKDISKSQVFLKMNSLQTDDTAMYYCTRDRGYGYLYAMDYWGQGTSVTVSS
VL: KFMSTSVGDRVSVTCKASQNVGTNVAWYQQKPGQSPKALIYSTSSRYTGVPDRFAGSGSGTDYTLTISNVQSEDLAEYFCQQYNTYPYTFGGGTRLDIKR
B3: HB5 (antibody, V domains shown)
VH: AELVRPGASVKISCKAFGYTFTNHNINWVKQRPGQGLDWIGYINPYNDYTSYNQKFKGKATLTVDKSSNTAYMELSSLTSEDSAVYYCARSEGWLRRGAWFAYWGQGTLVTVSA
VL: AILSVSPGERVSFSCRASQSIGTSIHWYQQRTNDSPRLLIKYASESISGIPPRFSGSGSGTDFTLSINSVESEDIADYHCQQSNSWPMLTFGAGTKLELKR
notes: also called mHB5
B4: HB17 (antibody, V domains shown)
VH: AELVIPGASVKVSCKASGYTFTSYWIHWVKQWPGQGLEWIGEINPNNGHTNYNEKFKSKATLTVDKSSSTAYMQLSSLTSEDSAVYYCARNLFYYSRPDYWGQGTSVTVSS
VL: SSLSASLGDRVTISCRASQDIGNYLNWYQQKPDGTIKLLIYYTSRLHSGVPSRFSGSGSGTDYSLTISNLEEEDIATYFCQQGNTLPPTFGGGTKLEIKR
B5: murine 72A1 (m72A1), anti-EBV gp350 neutralizing antibody from hybridoma HB168 (antibody, V domains shown)
VH: EVQLQQSGPELVKPGTSMKISCKASGSSFTDYTMNWMKQSHGKNLEWIGLINPYNGGTRYNQKFKGKATLTLDKSSSTAYMEVLSLTSEDSAVYYCAGGLRRVNWFAYWGQGTLVSVSA
VL: QAVLTQESALTTSPGETVTLTCRSSTGAVTTSNYANWVQEKPDHLFTGLIGGTNNRVPGVPARFSGSLIGDKAALTITGAQTEDEAIYFCVLWHSNHWVFGGGTKLTVL
notes: also called nAb-72A1; mouse 72A1

The target in the first assay is T1, EBV gp350 on EBV-eGFP virions (Epstein-Barr virus, UniProt P03200 1-907).
T1 sequence: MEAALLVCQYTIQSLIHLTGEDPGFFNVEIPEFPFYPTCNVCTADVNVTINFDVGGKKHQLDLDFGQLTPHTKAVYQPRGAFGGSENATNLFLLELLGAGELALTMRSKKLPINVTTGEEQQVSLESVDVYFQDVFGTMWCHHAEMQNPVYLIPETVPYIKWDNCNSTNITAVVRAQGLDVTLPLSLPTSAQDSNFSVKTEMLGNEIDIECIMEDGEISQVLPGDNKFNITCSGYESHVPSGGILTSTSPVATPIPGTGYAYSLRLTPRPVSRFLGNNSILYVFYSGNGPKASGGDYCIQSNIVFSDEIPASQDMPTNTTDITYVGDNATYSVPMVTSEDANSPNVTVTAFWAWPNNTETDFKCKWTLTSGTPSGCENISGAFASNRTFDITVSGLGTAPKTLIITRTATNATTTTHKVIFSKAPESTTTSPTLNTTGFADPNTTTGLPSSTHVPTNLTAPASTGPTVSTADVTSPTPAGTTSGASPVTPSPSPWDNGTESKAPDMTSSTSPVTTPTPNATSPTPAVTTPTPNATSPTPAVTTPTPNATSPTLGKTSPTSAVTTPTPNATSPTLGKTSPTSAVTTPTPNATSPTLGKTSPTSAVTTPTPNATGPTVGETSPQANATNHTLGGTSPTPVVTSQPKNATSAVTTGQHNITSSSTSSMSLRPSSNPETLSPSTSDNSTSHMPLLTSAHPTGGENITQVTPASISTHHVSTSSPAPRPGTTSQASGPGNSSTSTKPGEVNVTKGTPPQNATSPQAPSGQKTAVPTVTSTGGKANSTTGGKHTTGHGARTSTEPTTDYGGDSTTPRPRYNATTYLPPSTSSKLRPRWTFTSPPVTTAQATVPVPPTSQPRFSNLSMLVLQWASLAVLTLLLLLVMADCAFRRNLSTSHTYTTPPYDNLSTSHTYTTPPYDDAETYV
Put plainly: cell-based or functional assay.
As for B1, the “% neutralization of EBV-eGFP infection of Raji cells at 100 µg/ml” value was 90%.

For the molecule B2, the “% neutralization of EBV-eGFP infection of Raji cells at 100 µg/ml” value is 90%.

For another assay, the target named is T2, EBV gp350 expressed on the surface of stably transfected CHO cells (Epstein-Barr virus, UniProt P03200 1-907).
T2 construct: also called native gp350; gp350 expressing CHO cells
T2 sequence: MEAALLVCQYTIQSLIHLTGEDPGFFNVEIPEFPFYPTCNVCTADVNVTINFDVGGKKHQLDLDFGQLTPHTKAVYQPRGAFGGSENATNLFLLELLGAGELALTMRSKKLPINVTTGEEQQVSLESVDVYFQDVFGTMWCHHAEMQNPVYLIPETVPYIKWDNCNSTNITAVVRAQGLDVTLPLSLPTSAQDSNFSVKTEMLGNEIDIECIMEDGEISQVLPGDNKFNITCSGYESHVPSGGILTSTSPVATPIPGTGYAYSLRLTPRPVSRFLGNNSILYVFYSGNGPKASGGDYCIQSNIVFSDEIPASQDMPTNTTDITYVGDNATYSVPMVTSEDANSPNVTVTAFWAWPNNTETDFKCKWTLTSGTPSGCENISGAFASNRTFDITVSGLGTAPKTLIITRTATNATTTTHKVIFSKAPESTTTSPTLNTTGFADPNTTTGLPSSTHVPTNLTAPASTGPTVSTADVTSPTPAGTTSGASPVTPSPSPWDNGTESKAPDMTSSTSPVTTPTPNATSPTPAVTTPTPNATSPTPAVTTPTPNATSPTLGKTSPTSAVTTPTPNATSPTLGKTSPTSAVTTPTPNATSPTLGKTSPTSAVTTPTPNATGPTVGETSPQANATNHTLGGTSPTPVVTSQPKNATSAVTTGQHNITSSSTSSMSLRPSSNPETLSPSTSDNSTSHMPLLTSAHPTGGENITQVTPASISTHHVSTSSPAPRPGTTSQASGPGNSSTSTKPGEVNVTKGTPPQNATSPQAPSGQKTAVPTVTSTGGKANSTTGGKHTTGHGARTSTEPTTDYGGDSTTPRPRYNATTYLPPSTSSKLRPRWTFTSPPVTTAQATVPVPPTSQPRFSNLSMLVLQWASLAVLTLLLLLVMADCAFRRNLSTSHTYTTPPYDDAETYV
The assay is described as follows: cell competition (flow), unlabeled 125 µg/ml; competitor: biotinylated m72A1 1 µg/ml.
Regarding B3, the “% inhibition of biotinylated nAbs” value was 92%.

In the case of B4, the “% inhibition of biotinylated nAbs” value was found to be 6%.

For B1, the “% inhibition of biotinylated nAbs” value amounted to 89%.

For B2, the “% inhibition of biotinylated nAbs” value amounted to 81%.

As for B5, the “% inhibition of biotinylated nAbs” value came out at 94%.

In the next assay the target is T2, EBV gp350 expressed on the surface of …. Put plainly: cell competition (flow), unlabeled 250 µg/ml; competitor: biotinylated m72A1 1 µg/ml.
In the case of B3, the “% inhibition of biotinylated nAbs” value worked out at 93%.

Regarding B4, the “% inhibition of biotinylated nAbs” value came out at 32%.

On to B1, for which the “% inhibition of biotinylated nAbs” value was determined as 95%.

Turning to B2, the “% inhibition of biotinylated nAbs” value was 89%.

As for B5, the “% inhibition of biotinylated nAbs” value is 93%.

The next assay has the same target. The assay is described as follows: cell competition (flow), unlabeled 500 µg/ml; competitor: biotinylated m72A1 1 µg/ml.
As for B3, the “% inhibition of biotinylated nAbs” value amounted to 95%.

Consider B4, for which the “% inhibition of biotinylated nAbs” value was 32%.

In the case of B1, the “% inhibition of biotinylated nAbs” value amounted to 95%.

Consider B2, for which the “% inhibition of biotinylated nAbs” value came out at 91%.

For the molecule B5, the “% inhibition of biotinylated nAbs” value came to 91%.

For a further assay the target is unchanged. The assay is described as follows: cell competition (flow), unlabeled 67.5 µg/ml; competitor: biotinylated m72A1 1 µg/ml.
In the case of B3, the “% inhibition of biotinylated nAbs” value was determined as 94%.

As to B4, the “% inhibition of biotinylated nAbs” value is 0%.

On to B1, for which the “% inhibition of biotinylated nAbs” value was 87%.

In the case of B2, the “% inhibition of biotinylated nAbs” value is 81%.

As for B5, the “% inhibition of biotinylated nAbs” value was 97%.

For a further assay the target is unchanged. Put plainly: cross-competition on gp350-CHO cells (flow), unlabeled 500 µg/ml; competitor: biotinylated HB1.
As to B3, the “% inhibition of biotinylated nAbs” value is 92%.

Consider B4, for which the “% inhibition of biotinylated nAbs” value turned out to be 23%.

Turning to B1, the “% inhibition of biotinylated nAbs” value was 93%.

In the case of B2, the “% inhibition of biotinylated nAbs” value came out at 92%.

Take B5: the “% inhibition of biotinylated nAbs” value is 82%.

A further assay has the same target. The assay is described as follows: cross-competition on gp350-CHO cells (flow), unlabeled 500 µg/ml; competitor: biotinylated HB5.
Take B3: the “% inhibition of biotinylated nAbs” value turned out to be 98%.

As for B4, the “% inhibition of biotinylated nAbs” value is 32%.

Take B1: the “% inhibition of biotinylated nAbs” value amounted to 96%.

As for B2, the “% inhibition of biotinylated nAbs” value was 97%.

Take B5: the “% inhibition of biotinylated nAbs” value is 97%.

Another assay shares this target. The assay is described as follows: cross-competition on gp350-CHO cells (flow), unlabeled 500 µg/ml; competitor: biotinylated 54A1.
B3: the “% inhibition of biotinylated nAbs” value was determined as 13%.

B4: the “% inhibition of biotinylated nAbs” value worked out at 0%.

For B1, the “% inhibition of biotinylated nAbs” value turned out to be 9%.

Take B2: the “% inhibition of biotinylated nAbs” value came out at 4%.

For the molecule B5, the “% inhibition of biotinylated nAbs” value was found to be 1%.

The next assay shares this target. Put plainly: cross-competition on gp350-CHO cells (flow), unlabeled 500 µg/ml; competitor: biotinylated HB11.
Take B3: the “% inhibition of biotinylated nAbs” value was 93%.

Take B4: the “% inhibition of biotinylated nAbs” value turned out to be 11%.

In the case of B1, the “% inhibition of biotinylated nAbs” value was determined as 96%.

On to B2, for which the “% inhibition of biotinylated nAbs” value is 96%.

As for B5, the “% inhibition of biotinylated nAbs” value stood at 90%.

The target is the same in another assay. Put plainly: cross-competition on gp350-CHO cells (flow), unlabeled 500 µg/ml; competitor: biotinylated HB17.
On to B3, for which the “% inhibition of biotinylated nAbs” value amounted to 9%.

As to B4, the “% inhibition of biotinylated nAbs” value is 86%.

Turning to B1, the “% inhibition of biotinylated nAbs” value came to 17%.

On to B2, for which the “% inhibition of biotinylated nAbs” value was 16%.

Take B5: the “% inhibition of biotinylated nAbs” value came to 37%.

The target is the same in a further assay. The assay is described as follows: cross-competition on gp350-CHO cells (flow), unlabeled 500 µg/ml; competitor: biotinylated HB20.
As to B3, the “% inhibition of biotinylated nAbs” value turned out to be 73%.

Turning to B4, the “% inhibition of biotinylated nAbs” value was found to be 17%.

Regarding B1, the “% inhibition of biotinylated nAbs” value stood at 3%.

On to B2, for which the “% inhibition of biotinylated nAbs” value stood at 61%.

Take B5: the “% inhibition of biotinylated nAbs” value turned out to be 31%.

The target is the same in another assay. The assay is described as follows: cross-competition on gp350-CHO cells (flow), unlabeled 500 µg/ml; competitor: biotinylated h72A1.
Consider B3, for which the “% inhibition of biotinylated nAbs” value was found to be 97%.

Turning to B4, the “% inhibition of biotinylated nAbs” value was found to be 16%.

With B1, the “% inhibition of biotinylated nAbs” value was 97%.

With B2, the “% inhibition of biotinylated nAbs” value is 95%.

For the molecule B5, the “% inhibition of biotinylated nAbs” value came to 98%.

The target is the same in another assay. Put plainly: cross-competition on gp350-CHO cells (flow), unlabeled 500 µg/ml; competitor: biotinylated m72A1.
Regarding B3, the “% inhibition of biotinylated nAbs” value worked out at 97%.

As for B4, the “% inhibition of biotinylated nAbs” value was 24%.

With B1, the “% inhibition of biotinylated nAbs” value came to 97%.

With B2, the “% inhibition of biotinylated nAbs” value is 98%.

Regarding B5, the “% inhibition of biotinylated nAbs” value is 98%.
